Results as given in the Human Domainome abundance scans (Beltran et al. 2025).

B1: PDZ and LIM domain protein 2, residues 284 to 339; numbered along this chain, Q96JY6 (parent)
chain: HTCEKCSTSIANQAVRIQEGRYRHPGCYTCADCGLNLKMRGHFWVGDELYCEKHAR

Variants of: B1
Assay: abundance fitness (aPCA) (normalised: wild type 0, dead -1); higher = more abundant; growth selection in yeast, the domain comes from the species named
Details: Homo sapiens

Abundance fitness, by site and new letter:
K38: H -0.197; C -0.24; Y -0.037; A 0.189
L35: W -0.054; S 0.005; I 0.05
V45: K 0.313; L -0.063; H 0.221; G 0.107; P -0.361; Y 0.066; S -0.11
R16: P 0.209; L 0.168; I 0.172; K 0.223; M 0.2
Y28: T 0.116; M -0.13; F -0.364; I -0.452; R -0.473; G -0.471; A -0.076; C -0.187
G26: T 0.158; D 0.227; H 0.525; N -0.083; A 0.033
A55: V -0.172; I -0.203; S 0.148
P25: I -0.033; A 0.113; N -0.152; S 0.118; V -0.169
H54: T -0.7; D 0.128; V -0.612; S -0.522; C 0.135; P -0.771; N -0.465
W44: E 0.139; A 0.163; K -0.208; R -0.045; Y 0.128; F 0.025; L 0.096; H 0.15; P 0.205; N -0.24
E4: Q -0.16; M 0.093; G -0.028; W -0.276
T2: A -0.578; S -0.559; D -0.305; C -0.323; R -0.389; I 0.208; E -0.597; K 0.003
D32: L -0.099; Y -0.106; R 0.124
M39: Y 0.002; K 0.071; S 0.057; P 0.422; I -0.347; Q 0.048
Q18: R -0.062; G -0.088; S 0.03; L -0.077; P -0.47; H -0.451; N -0.248; D -0.032; T -0.051; A 0.043
Y22: M -0.532; H -0.398; Q -0.02; T -0.477; R -0.333; N -0.32; P -0.496; I -0.691; G -0.411
C33: M -0.947; D -0.695; T -0.747; P -0.757; R -0.964; L -0.549; Y -0.823; F -0.876; S -0.828
C30: I -1.06; A -1.01; K -1.13; M -0.712; P -0.671; N -0.788; W -1.05; V -0.789
I10: E 0.006; M -0.425; D -0.041; W -0.488; G -0.312; Y -0.809
E48: H -0.084; P -0.788; T -0.286; D -0.065; M -0.18; V -0.011; C -0.289; A -0.091
C3: E -0.986; P -0.968; K -0.45; S -0.693; M -0.856; V -0.983; I -0.471; A -1.1
Y50: G -0.501; F -0.001; D -0.079; E -0.673; T -0.289; R -0.008
T29: C -0.23; A -0.103; Y -0.17
D47: L -0.026; R 0.008; Y -0.224; V -0.229; S 0.004; C -0.002; M -0.086; F -0.339
S9: I -0.764; C -0.365; T -0.271; D 0.277; Y -1.02; H -0.539; F -1.09; L -0.767; V -0.485; N -0.058
N36: E 0.099; S -0.038; D -0.257; V -0.113
